These results are taken from publication PMC7768477 (Antibodies, 2020).

In test [1] the target is T1, Lassa NPc (C-terminal portion of NP encoding residues 341-569) (Lassa virus lineage IV, strain Josiah, UniProt P13699).
T1 construct: source: bought: Zalgen (recombinant)
Briefly: SPR; ProteOn XPR36; […] (20 ug/mL in 10 mM sodium acetate pH 5.0); […]. The settings on record: both partners purified. (In SPR one partner is held on a chip, and binding of the other changes the refractive index at the surface.)

The target in test [2] is T2, Lassa NPn (N-terminal portion of NP encoding residues 1-340) (Lassa virus lineage IV, strain Josiah, UniProt P13699).
T2 construct: source: bought: Zalgen (recombinant)
Briefly: SPR; ProteOn XPR36; […] (20 ug/mL in 10 mM sodium acetate pH 5.0); […]; Langmuir model. To be noted: both partners purified.

Where a chain is given by its changes, count along the chain named.

T1 sequence (P13699 341-569): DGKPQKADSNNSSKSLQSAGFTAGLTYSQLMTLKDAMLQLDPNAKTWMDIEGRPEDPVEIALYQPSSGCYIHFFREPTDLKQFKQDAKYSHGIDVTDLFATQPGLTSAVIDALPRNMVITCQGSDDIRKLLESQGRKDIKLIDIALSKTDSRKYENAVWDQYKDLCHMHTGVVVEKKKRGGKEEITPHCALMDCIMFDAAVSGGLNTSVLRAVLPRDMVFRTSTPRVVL
T2 sequence (P13699 1-340): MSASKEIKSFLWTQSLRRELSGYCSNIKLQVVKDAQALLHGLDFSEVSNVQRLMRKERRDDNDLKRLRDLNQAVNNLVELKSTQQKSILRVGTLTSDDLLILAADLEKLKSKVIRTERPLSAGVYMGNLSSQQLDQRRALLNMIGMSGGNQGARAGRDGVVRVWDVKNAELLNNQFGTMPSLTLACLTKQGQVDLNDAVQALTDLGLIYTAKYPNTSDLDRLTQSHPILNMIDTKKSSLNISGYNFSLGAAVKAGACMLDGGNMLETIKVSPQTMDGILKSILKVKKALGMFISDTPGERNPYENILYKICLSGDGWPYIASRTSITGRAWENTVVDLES

B1: sdAb B5 (VHH)
VHH: EVQLQASGGGLAQPGGSLRLSCAASGFTLVYYGIGWFRQAPGKEREGVSCISSNDGSTYYADSVKGRFTISRDAAKNTVYLQMNSLKPEDTAVYYCATELGNTHRGSFFPNRRVERCRTDDFASWGQGTQVTVSS
notes: source: E. coli Tuner (DE3), periplasmic, purified (osmotic shock, IMAC, gel filtration)
B1: in test [1], the binding result is “no binding”. Also, in test [2], the affinity, expressed as Kd, was 0.019 µM; the off-rate constant (koff) (as a rule, the first-order rate constant of dissociation) was determined as 0.0061 s⁻¹; the on-rate constant (kon) (in general, the second-order rate constant of association) came to 320000 M⁻¹ s⁻¹.

B2: sdAb E11 (VHH)
VHH: B1 VHH with S57T, A74N, F108Y, N111K, R112Q, R118H, D120G
notes: as for B1
With B2, the binding result in test [1] is “no binding”. Further, in test [2], the dissociation constant (Kd) (in general, the equilibrium constant for the complex coming apart) was determined as 0.057 µM; the koff amounted to 0.0076 s⁻¹; the kon was 150000 M⁻¹ s⁻¹.

B3: sdAb H6 (VHH)
VHH: B1 VHH with E1D, L11V, A12V, A23V, E115K
notes: also called clone H6; Bt-H6; source: E. coli Tuner (DE3), periplasmic, purified (osmotic shock, IMAC, gel filtration)
Take B3: the binding result in test [1] is “no binding”. For the same molecule, in test [2], binding was put at a Kd of 0.0093 µM, the koff was 0.0057 s⁻¹ and the kon is 610000 M⁻¹ s⁻¹.

B4: sdAb C7 (VHH)
VHH: B1 VHH with A12V, A23V, V79M
notes: as for B1
With B4, the binding result in test [1] is given as “no binding”. Further, in test [2], the Kd was 0.0075 µM, the off-rate constant (koff) is 0.0038 s⁻¹ and the kon is 510000 M⁻¹ s⁻¹.

B5: sdAb F3 (VHH)
VHH: B1 VHH with E1D, A12V, N54Y, S57T, A74N, F108Y, N111K, R112Q, R118H, D120G
notes: as for B1
For B5, the binding result in test [1] is “no binding”. In test [2], the dissociation constant (Kd) worked out at 0.0075 µM, the koff was found to be 0.003 s⁻¹ and the on-rate constant (kon) stood at 400000 M⁻¹ s⁻¹.

B6: sdAb E1 (VHH)
VHH: DVQLQASGGGLVQTGGSLRLSCENSGRALRIMGWFRQAPGKEREFVATINRNGESTYYSDSVKGRFTISRDNNKNTVYLQMNNLKPEDTGVYNCAADRPGPTQIKTRADDYDYWGEGTQVTVSS
notes: also called clone E1; source: E. coli Tuner (DE3), periplasmic, purified (osmotic shock, IMAC, gel filtration)
On to B6, for which the binding result in test [1] and in test [2] was “no binding” each time.

B7: sdAb G11 (VHH)
VHH: DVQLQASGGGLVQAGDSLTLSCAASGRTVSPYGVGWFRQAPGREREFVAALSRSGTFTAYADSVKGRFTISRDNAKNTVYLQMNSLKPDDTAVYHCAARSASSYYSTYRKEDDYHYWGQGTQVTVSS
notes: as for B1
Regarding B7, in test [1], the binding result is “no binding”. In test [2], the Kd is 0.184 µM, the off-rate (koff) stood at 0.07 s⁻¹ and the kon came out at 380000 M⁻¹ s⁻¹.

B8: sdAb E10 (VHH)
VHH: DVQLQASGGGLVQAGASLRLSCAASGFTYTMGWFRQAPGQEREFVAAIARSGGTTYYTDSVKGRFTISRDNAKKTVFLQLNSLKPEDTAVYYCAADALPYSAQSMSTRNPGYWGQGTQVTVSS
notes: as for B1
As to B8, in test [1], the binding result was “no binding”. In test [2], this molecule returned a Kd of 0.069 µM, a koff of 0.13 s⁻¹ and a kon of 1.9e+06 M⁻¹ s⁻¹.
